According to the DeepSol protein solubility set:

Experiment: soluble on expression in E. coli; label from the status in PepcDB or PDB records

Row | Sequence | soluble on expression in E. coli
1 | GYQALEKYSRDLTALARAGKLDPVIGRDTEIRRAIQILSRRTKNNPILLGDPGVGKTAIVEGLAIKIVQGDVPDSLKGRKLVSLDLSSLIAGAKYRGDFEERLKSILKEVQDAEGQVVMFIDEIHTVVGAGAVAEGALDAGNILKPMLARGELRCIGATTVSEYRQFIEKDKALERRFQQILVEQPS | soluble
2 | HFVIRSPEDGANLVMEDMRFLTQEHFVCLYLNTKNQVIHKRTVFIGSLNSSIVHPREVFKEAFKRSAASFICVHNHPSGDPTPSREDIEVTRRLFECGNLIGIELLDHLVIGDKKFVSLKEKGYL | not soluble
3 | HGTELPSPPSVWFEAEFFHHILHWTPIPQQSESTCYEVALLRYGIESWNSISQCSQTLSYDLTAVTLDLYHSNGYRARVRAVDGSRHSQWTVTNTRFSVDEVTLTVGSVNLEIHNGFILGKIQLPRPKMAPAQDTYESIFSHFREYEIAIRKVPGQFTFTHKKVKHEQFSLLTSGEVGEFCVQVKPSVASRSNKGMWSKEECISLTRQYFTVTN | soluble
4 | HHHHHHSSGLVPRGSHMGGTGSGMTPGEAWKKQLNKLGKTQFEQYKRSCILEVDRTHARDSLENGIQNGIAVSRGSAKLRWMEERGYVKPTGIVVDLGCGRGGWSYYAASLKNVKKVMAFTLGVQGHEKPIMRTTLGWNLIRFKDKTDVFNMEVIPGDTLLCDIGESSPSIAVEEQRTLRVLNCAKQWLQEGNYTEFCIKVLCPYTPLIMEELSRLQLKHGGGLVRVPLSRNSTHEMYWVSGTRTDVVGTVSNVSRLLTRRMLNKPQPPTLEDDVILDMGTR | soluble
5 | HIKVGFSPEKLQPYTQLPSDFNEFWNKTKAEAARFPLTYTKEYVEKYSTDKIDCYLIRLQLNKQSQCIYGYLFYPKAEGKYPVVLCPPGAGIKTIKGPMRHKYYAEEGCIRFEIEIHGLNPELDEDTFGEISRAFSSRENGYLVNGLDSRENYYMKRVYLACVRSIDLLTSLPEWDGKNVIVQGGSQGGALALITAGLDKRVTACVANHPALSDMAGYKAGRAGGYPHLFKNTVDMDTPAKMKTLAYYDVVNFAKQITVPVYMTWGFNDNTCPPTTSYIVYNVLNCPKEALITPVNEHWTSEDTEYGHLLWIKKHLK | not soluble
6 | HMAEIYLAGGCFWGLEEYFSRISGVLETSVGYANGQVETTNYQLLKETDHAETVQVIYDEKEVSLREILLYYFRVIDPLSINQQGNDRGRQYRTGIYYQDEADLPAIYTVVQEQERMLGRKIAVEVEQLRHYILAEDYHQDYLRKNPSGYCHIDVTDADKPLIDAANYEKPSQEVLKASLSEESYRVTQEAATEAPFTNAYDQTFEEGIYVDITTGEPLFFAKDKFASGCGWPSFSRPLSKELIHYYKDLSHGMERIEVRSRSGSAHLGHVFTDGPRELGGLRYCINSASLRFVAKDEMEKAGYGYLLPYLNK | soluble
7 | HMVTLYTSPSSTSCRKARAWLEEHEIPFVERNIFSEPLSIDEIKQILRMTEDGTDEIISTRSKVFQKLNVNVESMPLQDLYRLINEHPGLLRRPIIIDEKRLQVGYNEDEIRRFLPRKVRSFQLREAQRLAN | soluble
8 | HNGDLYFSNVMLQDMQTDYSCNARFHFTHTIQQKNPFTLKVLTTRGVAERTPSFMYPQGTASSQMVLRGMDLLLECIASGVPTPDIAWYKKGGDLPSDKAKFENFNKALRITNVSEEDSGEYFCLASNKMGSIRHTISVRVKAAPYWLDEPKNLILAPGEDGRLVCRANGNPKPTVQWMVNGEPLQSAPPNPNREVAGDTIIFRDTQISSRAVYQCNTSNEHGYLLANAFVSVLDVPPRMLSPRNQLIRVILYNRTRLDCPFFGSPIPTLRWFKNGQGSNLDGGNYHVYENGSLEIKMIRKEDQGIYTCVATNILGKAENQVRLEVKDPTRIYRMPEDQVARRGTTVQLECRVKHDPSLKLTVSWLKDDEPLYIGNRMKKEDDSLTIFGVAERDQGSYTCVASTELDQDLAKAYLTVLGRPDRPRDLELTDLAERSVRLTWIPGDANNSPITDYVVQFEEDQFQPGVWHDHSKYPGSVNSAVLRLSPYVNYQFRVIAINEVGSSHPSLPSERYRTSGAPPESNPGDVKGEGTRKNNMEITWTPMNATSAFGPNLRYIVKWRRRETREAWNNVTVWGSRYVVGQTPVYVPYEIRVQAENDFGKGPEPESVIGYSGEDYPRAAPTEVKVRVMNSTAISLQWNRVYSDTVQGQLREYRAYYWRESSLLKNLWVSQKRQQASFPGDRLRGVVSRLFPYSNYKLEMVVVNGRGDGPRSETKEFTTPEGVPSAPRRFRVRQPNLETINLEWDHPEHPNGIMIGYTLKYVAFNGTKVGKQIVENFSPNQTKFTVQRTDPVSRYRFTLSARTQVGSGEAVTEESPAPPNEGRCMAAAPGVKGPS | soluble
9 | HPIFQRDGDDLHCEVPVRISQAALGDIVRVATLDGEAEIRIPAETQSGKLFRLRGKGVRSVRSRTEGDLYCRIVVETPVNLTAEQRKLLEQFEMTFAGEDARK | not soluble
10 | HPWRKGPFTVHDIHIDTEWRSDWKWDRLLPHITPLKNRSVLDVGCGNGYHMWRMLGEDARLCVGIDPSHLFLIQFEAIRKLMGNDQRAHLLPLGIEQLPELNAFDTVFSMGVLYHRRSPLDHLIQLKNQLVAGGELVLETLVIDGDENAVLMPVDRYAQMRNVYFFPSARALKVWLESVGFVDVKIVDECVTTTGEQRSTEWMKHNSLPEYLDPNDSTKTIEGHPAPKRAILIAKKPD | not soluble
11 | HWPPLGIVRDLWTESGIGPERVAVMERVAGPKCCLLGRQNDRPSGAAFVGLAGPFAMLHALEVTPALRRLGSAQAMIRRGACWAEAAGAHWFSLVVTTANAPARALYEALGMEEVGHYHYRLK | not soluble
12 | IAALSRDITPQQDGSVIVDASITIRHLNRMMGWSLPLIGPRTLSGLIIEHLGYIPPPDSCLVIDHYHIEILRVSDNMIRGVKMIKTN | not soluble
13 | IDFRGIEKQGGRVLIDVSDTGIPIDVTQVGKEIVVNFLNTKIPLNLMKRYDVSDFHSPVQIITMQQEGKKVRMTILSKGDYGHFVYQVNKQFMVDVFPLTAEEIR | not soluble
14 | IGNGGAERGTRNTLDIRTVAHREADGSYRIKGEKFYSTGALFAHWVSIKALDDNGKTVMAFIERGTQGLRIVDDWSGFGQRTTASGTVLLDDVSVPAKQVVP | not soluble
15 | ILAVLFANSVGNVLIERFNGVPAEERLHWRSFLVKLGADNLKGVKNEELLVACHKSVYIVYTMLGDVSIFLVGKDEYDELALAETIYIITAAVKDVCGKPPTERVFLDKYGRICLCLDEIVW | not soluble
16 | ILGYSYGYNGMEANVSKSDYEKHMSDLDTKKIKQDIKKAEKEADITIVMPQMGIEYQKKPTTEQVMLYHSMIKWGADIIFGGHPHVVEPSEVIKKDGQKKFIIYSMGNFISNQRLETVDDIWTE | not soluble
17 | ILTAGPTVDGRNIEQSVIDDIAETYDPKRYNARINEEHWSWSDKFGSVLSVEKRDDQLFAVLKPNSLLLSTIEKGQLLHTSCEIRANFQGTGKSYLTGLALTDEPASVGTTEMHLSAKEKNKDKSYFSSGATISKDDLSNNIDVDVQEDRKFLSRLKQLLSLGEPDKTQSLEESEDMNEELKELLQAQTAAVTALTAQVTSLAATLNKEESAPVEEENNETELAEKVDALSTKLDDVVTKLSNITDEPNRNLAGVDGDTEY | not soluble
18 | INIEIAYAFPERYYLKSFQVDEGITVQTAITQSGILSQFPEIDLSTNKIGIFSRPIKLTDVLKEGDRIEIYRPLLADPKEIRRK | not soluble
19 | INMEEIREFAKNFKIRRLSLGLTQTQVGQAMTATEGPAYSQSAISRFEKLDITPKSAQKLKPVLEKWLNEAELRNQEGQQNLMEFVGGEPSKKRKRRTSFTPQAIEALNAYFEKNPLPTGQEITEMAKELNYDREVVRVWFSNRRQTLKNT | soluble
20 | IPTKFVQKVTITKEGKKRVAPQLLTTLSA | soluble
21 | ISEFSDWQETLLEHLTQWVEAEIERDIAVDSHEESQRLLEATFNSPETFIGILDADGTLIRANETALGFIDADAADVCGEPFCETPWWNHDEAVANRCREAVERTRAGETVRFEAEHVGADGQRISTSVVARPVTAD | not soluble
22 | IVRPPFTYATLIRQAIMESSDRQLTLNEIYSWFTRTFAYFRRNAATWKNAVRHNLSLHKCFVRVENVKGAVWTVDEVEYQKRRSQKITGSPTL | soluble
